Experimental findings from EP4722253A1 are described below.

The target of this assay is HER2 expressed on JIMT-1 cells (UniProt P04626). Put plainly: flow cytometry on JIMT-1 cells, antibody at 100 nM, FITC secondary.

As for IgG control (antibody), the MFI is 12500.
